# Test results reported in patent publication US20220025023A1 (AC IMMUNE, published 2022).
# Residue numbers refer to the chain shown, from its start. Where no end group is shown, it is not given here.
# B1: ACI-7062-410H3-Ab1 (antibody, IgG1, V domains shown)
# VH: DVQLVESGGGLVQPGGSRRLSCAASGFTFSSFGMHWVRQAPEKGLEWVAYIRSGSDIIYYADSVKGRFTISRDNPENTLFLQMTSLRSEDTAMYYCARSGTTVPFDYWGQGTSLTVSS
# VL: DIVMTQSPSSLAMSVGQKVTMSCKSSQSLLNSGNQKNYLAWYQQKPGQSPELLLYFASTRASGVPDRFIGSGSGTDFTLTISSVQAEDLADYFCQQHYSIPLTFGAGTKLELKR
# notes: also called 410H3B9; clone 7
# B2: ACI-7062-412A7-Ab1 (antibody, IgG2b, V domains shown)
# VH: B1 VH
# VL: B1 VL
# notes: also called 412A7B7; clone 9
# B3: ACI-7062-406E3-Ab1 (antibody, IgG2a, V domains shown)
# VH: QVTLKESGPAILQPSQTLSLTCSFSGFSLTTYGIGVGWIRQPSGKGLEWLAHIWWNDNKYYNTALKSRLTVSKDTSNNQVFLKIASVDTADTATYYCARVYGNLYYFAYWGQGTTLTVSS
# VL: DVLMTQTPLSLPVSLGDRASISCRSSQSIVHRSGNTYLEWYLQKPGQSPKLLIYKVSNRFSGVPDRFSGSGSGTDFTLKISRVEAEDLGVYYCFQGSHVPTFGAGTKLELKR
# notes: also called 406E3D5; clone 5
# B4: ACI-7062-416A11-Ab1 (antibody, IgG2a, V domains shown)
# VH: B3 VH with A10G, P14S, T30S, V71I, T92A, A108G
# VL: B3 VL with R32S, H98R
# notes: also called 416A11B3; clone 18
# Target: T1, TDP-215 peptide (human)
# T1 construct: same ELISA method as for the biotinylated 15-mers
# T1 peptide: GDVMDVFI
# Assay: indirect ELISA, 8-mer peptide library, OD 405 nm
# Procedure: (§1) Serum-free supernatants were harvested from stable hybridomas. The supernatants containing antibodies of interest were then screened by an indirect ELISA assay to determine epitopes. Epitopes were mapped using a library of TDP-43 15-mer peptides. Briefly, 96-well streptavidin-coated 96-well ELISA plates were incubated with 5 μg/mL of biotinylated 15-mer peptides spanning the amino acids (aa) 199-285 of human TDP-43 with 9 aa offset and 6 aa overlap. Plates were washed thoroughly with 0.05% Tween-20/PBS and then blocked with 1% bovine serum albumin (BSA) in 0.05% Tween-20/PBS for 1 hour at 37° C. The antibody contained in the hybridoma supernatant was then added at the indicated dilutions, and incubated for 2 hours at 37° C. after which the plates were washed as described previously. An AP-conjugated anti-mouse IgG secondary antibody (Jackson ImmunoResearch Laboratories, United Kingdom) was added at 1/1000 dilution in 0.05% Tween-20/PBS for 1 hour at 37° C. After the final wash, plates were incubated with pNPP (Sigma-Aldrich, Switzerland) an AP substrate solution, and read at 405 nm using an ELISA plate reader (Tecan).
# (§2) Furthermore, antibodies were tested using an indirect ELISA on a peptide library of 8-mer peptides with 7 aa overlap covering the sequence of human TDP-43 from aa 210 to aa 231, using the same ELISA method as describe previously in this section.
row,binding result,Binder
1,binds,B1
2,binds,B2
3,binds,B3
4,binds,B4

# Target: T2, TDP-217 peptide (human)
# T2 construct: 8-mer of human TDP-43; same ELISA method as for the biotinylated 15-mers
# T2 peptide: VMDVFIPK
# Assay: indirect ELISA, 8-mer peptide library
# Procedure: as §1, §2
row,binding result,Binder
1,no binding,B1
2,no binding,B2
3,no binding,B3
4,no binding,B4

# Target: T3, TDP-219 peptide (human)
# T3 construct: 8-mer of human TDP-43; same ELISA method as for the biotinylated 15-mers
# T3 peptide: DVFIPKPF
# Assay: indirect ELISA, 8-mer peptide library
# Procedure: as §1, §2
row,binding result,Binder
1,no binding,B1
2,no binding,B2
3,no binding,B3
4,no binding,B4

# Target: T4, TDP-218 peptide (human)
# T4 construct: 8-mer of human TDP-43; same ELISA method as for the biotinylated 15-mers
# T4 peptide: MDVFIPKP
# Assay: indirect ELISA, 8-mer peptide library
# Procedure: as §1, §2
row,binding result,Binder
1,no binding,B1
2,no binding,B2
3,no binding,B3
4,no binding,B4

# Target: T5, TDP-221 peptide (human)
# T5 construct: 8-mer of human TDP-43; same ELISA method as for the biotinylated 15-mers
# T5 peptide: FIPKPFRA
# Assay: indirect ELISA, 8-mer peptide library
# Procedure: as §1, §2
row,binding result,Binder
1,no binding,B1
2,no binding,B2
3,no binding,B3
4,no binding,B4

# Target: T6, TDP-220 peptide (human)
# T6 construct: 8-mer of human TDP-43; same ELISA method as for the biotinylated 15-mers
# T6 peptide: VFIPKPFR
# Assay: indirect ELISA, 8-mer peptide library
# Procedure: as §1, §2
row,binding result,Binder
1,no binding,B1
2,no binding,B2
3,no binding,B3
4,no binding,B4

# Target: T7, TDP-216 peptide (human)
# T7 construct: 8-mer of human TDP-43; same ELISA method as for the biotinylated 15-mers
# T7 peptide: DVMDVFIP
# Assay: indirect ELISA, 8-mer peptide library
# Procedure: as §1, §2
row,binding result,Binder
1,no binding,B3
2,no binding,B4

# Target: T8, TDP-213 peptide (human)
# T8 construct: 8-mer of human TDP-43; same ELISA method as for the biotinylated 15-mers
# T8 peptide: QYGDVMDV
# Assay: indirect ELISA, 8-mer peptide library
# Procedure: as §1, §2
row,binding result,Binder
1,no binding,B1
2,no binding,B2
3,no binding,B3
4,no binding,B4

# Target: T9, TDP-223 peptide (human)
# T9 construct: 8-mer of human TDP-43; same ELISA method as for the biotinylated 15-mers
# T9 peptide: PKPFRAFA
# Assay: indirect ELISA, 8-mer peptide library
# Procedure: as §1, §2
row,binding result,Binder
1,no binding,B1
2,no binding,B2
3,no binding,B3
4,no binding,B4

# Target: T10, TDP-214 peptide (human)
# T10 construct: 8-mer of human TDP-43; same ELISA method as for the biotinylated 15-mers
# T10 peptide: YGDVMDVF
# Assay: indirect ELISA, 8-mer peptide library
# Procedure: as §1, §2
row,binding result,Binder
1,no binding,B1
2,no binding,B2
3,no binding,B3
4,no binding,B4

# Target: T11, TDP-212 peptide (human)
# T11 construct: 8-mer of human TDP-43; same ELISA method as for the biotinylated 15-mers
# T11 peptide: SQYGDVMD
# Assay: indirect ELISA, 8-mer peptide library
# Procedure: as §1, §2
row,binding result,Binder
1,no binding,B1
2,no binding,B2
3,no binding,B3
4,no binding,B4

# Target: T12, TDP-211 peptide (human)
# T12 construct: 8-mer of human TDP-43; same ELISA method as for the biotinylated 15-mers
# T12 peptide: FSQYGDVM
# Assay: indirect ELISA, 8-mer peptide library
# Procedure: as §1, §2
row,binding result,Binder
1,no binding,B1
2,no binding,B2
3,no binding,B3
4,no binding,B4

# Target: T13, TDP-222 peptide (human)
# T13 construct: 8-mer of human TDP-43; same ELISA method as for the biotinylated 15-mers
# T13 peptide: IPKPFRAF
# Assay: indirect ELISA, 8-mer peptide library
# Procedure: as §1, §2
row,binding result,Binder
1,no binding,B1
2,no binding,B2
3,no binding,B3
4,no binding,B4

# Target: T14, TDP-224 peptide (human)
# T14 construct: 8-mer of human TDP-43; same ELISA method as for the biotinylated 15-mers
# T14 peptide: KPFRAFAF
# Assay: indirect ELISA, 8-mer peptide library
# Procedure: as §1, §2
row,binding result,Binder
1,no binding,B1
2,no binding,B2
3,no binding,B3
4,no binding,B4

# Target: T15, TDP-210 peptide (human)
# T15 construct: 8-mer of human TDP-43; same ELISA method as for the biotinylated 15-mers
# T15 peptide: FFSQYGDV
# Assay: indirect ELISA, 8-mer peptide library
# Procedure: as §1, §2
row,binding result,Binder
1,no binding,B1
2,no binding,B2
3,no binding,B3
4,no binding,B4

# Target: T16, TP-27 (also: biotinylated, site not given here)
# T16 construct: also called TP-27 peptide
# T16 peptide: ADDQIAQSLCGEDLI
# Assay: indirect ELISA, biotinylated 15-mer on streptavidin plate, hybridoma supernatant
# Procedure: as §1
row,binding result,Binder
1,no binding,B1
2,no binding,B2
3,no binding,B3
4,no binding,B4

# Target: T17, TP-23 (also: biotinylated, site not given here)
# T17 construct: also called TP-23 peptide
# T17 peptide: TEDMTEDELREFFSQ
# Assay: as above
# Procedure: as §1
row,binding result,Binder
1,no binding,B1
2,no binding,B2
3,no binding,B3
4,no binding,B4

# Target: T18, TP-29 (also: biotinylated, site not given here)
# T18 construct: also called TP-29 peptide
# T18 peptide: ISVHISNAEPKHNSN
# Assay: as above
# Procedure: as §1
row,binding result,Binder
1,no binding,B1
2,no binding,B2
3,no binding,B3
4,no binding,B4

# Target: T19, TP-26 (also: biotinylated, site not given here)
# T19 construct: also called TP-26 peptide
# T19 peptide: FRAFAFVTFADDQIA
# Assay: as above
# Procedure: as §1
row,binding result,Binder
1,no binding,B1
2,no binding,B2
3,no binding,B3
4,no binding,B4

# Target: T20, TP-31 (also: biotinylated, site not given here)
# T20 construct: also called TP-31 peptide
# T20 peptide: ERSGRFGGNPGGFGN
# Assay: as above
# Procedure: as §1
row,binding result,Binder
1,no binding,B1
2,no binding,B2
3,no binding,B3
4,no binding,B4

# Target: T21, TP-30 (also: biotinylated, site not given here)
# T21 construct: also called TP-30 peptide
# T21 peptide: PKHNSNRQLERSGRF
# Assay: as above
# Procedure: as §1
row,binding result,Binder
1,no binding,B1
2,no binding,B2
3,no binding,B3
4,no binding,B4

# Target: T22, TP-28 (also: biotinylated, site not given here)
# T22 construct: also called TP-28 peptide
# T22 peptide: CGEDLIIKGISVHIS
# Assay: as above
# Procedure: as §1
row,binding result,Binder
1,no binding,B1
2,no binding,B2
3,no binding,B3
4,no binding,B4

# Target: T23, recombinant human full-length TDP-43 (human, UniProt Q13148 1-414)
# T23 construct: Recombinant full-length protein; also called FL TDP-43; recFL TDP-43
# Assay: Luminex bead assay, antibody serial dilution, FL TDP-43 beads
# T23 sequence (Q13148 whole entry): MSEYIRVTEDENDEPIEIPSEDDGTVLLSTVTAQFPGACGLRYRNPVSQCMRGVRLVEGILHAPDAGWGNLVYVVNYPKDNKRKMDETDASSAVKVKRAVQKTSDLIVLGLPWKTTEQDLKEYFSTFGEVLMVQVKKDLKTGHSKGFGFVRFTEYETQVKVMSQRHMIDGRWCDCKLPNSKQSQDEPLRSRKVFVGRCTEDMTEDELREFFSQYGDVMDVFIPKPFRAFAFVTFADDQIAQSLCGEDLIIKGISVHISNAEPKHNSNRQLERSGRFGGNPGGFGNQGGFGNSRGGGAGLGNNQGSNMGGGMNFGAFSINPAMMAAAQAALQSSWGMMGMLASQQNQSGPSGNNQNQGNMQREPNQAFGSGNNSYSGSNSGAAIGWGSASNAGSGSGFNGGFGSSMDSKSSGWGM
row,EC50 [nM],Binder
1,0.03,B1
2,0.03,B2
3,< 0.01,B3
4,0.015,B4

# Target: T24, TP-24 peptide (human, also: biotinylated, site not given here)
# T24 construct: 15-mer of human TDP-43 from the library spanning aa 199-285; captured on streptavidin plates
# T24 peptide: REFFSQYGDVMDVFI
# Assay: indirect ELISA, biotinylated 15-mer peptide on streptavidin plate, hybridoma supernatant
# Procedure: as §1
row,OD,Binder
1,3.8 O.D. (405 nm),B1
2,4 O.D. (405 nm),B2
3,3 O.D. (405 nm),B3
4,2.9 O.D. (405 nm),B4

# Target: T25, TP-25 peptide (human, also: biotinylated, site not given here)
# T25 construct: 15-mer of human TDP-43 from the library spanning aa 199-285; captured on streptavidin plates
# T25 peptide: VMDVFIPKPFRAFAF
# Assay: as above
# Procedure: as §1
row,OD,Binder
1,0.8 O.D. (405 nm),B1
2,1.4 O.D. (405 nm),B2
3,1 O.D. (405 nm),B3
4,0.9 O.D. (405 nm),B4
